This assay deals with soluble manganese peroxidase (MnP) from Irpex lacteus F17 (Irpex lacteus F17). The assay can be described thus: SEC + other: dynamic light scattering; soluble MnP after Ni-NTA; HiLoad 16/60 Superdex 200 in 20 mM Tris-HCl pH 8.0, 200 mM NaCl; SEC peak II, DLS at room temperature at 0.1 mg/ml in the same buffer.

This is an account of results in article PMC5134096.

One may read the stoichiometry N as a count of units in the complex or per binding partner. Consider “soluble manganese peroxidase (MnP) from Irpex lacteus F17 (enzyme)”, for which the stoichiometry N came to 2.
